T1: pig CD47 (pig, UniProt Q9GKE8 19-303)
T1 construct: whole, on cells; also called CD47 on pig red blood cells
T1 sequence (looked up): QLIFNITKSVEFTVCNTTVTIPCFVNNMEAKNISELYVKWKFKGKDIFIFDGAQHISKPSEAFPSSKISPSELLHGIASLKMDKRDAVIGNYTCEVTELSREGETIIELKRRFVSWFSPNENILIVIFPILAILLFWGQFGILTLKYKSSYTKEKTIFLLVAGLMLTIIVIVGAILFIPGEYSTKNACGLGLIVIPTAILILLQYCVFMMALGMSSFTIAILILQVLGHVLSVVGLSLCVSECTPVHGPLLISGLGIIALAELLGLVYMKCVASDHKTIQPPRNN

T2: mouse CD47 (mouse, UniProt Q61735 19-303)
T2 construct: whole, on cells; also called CD47 on mouse red blood cells
T2 sequence (looked up): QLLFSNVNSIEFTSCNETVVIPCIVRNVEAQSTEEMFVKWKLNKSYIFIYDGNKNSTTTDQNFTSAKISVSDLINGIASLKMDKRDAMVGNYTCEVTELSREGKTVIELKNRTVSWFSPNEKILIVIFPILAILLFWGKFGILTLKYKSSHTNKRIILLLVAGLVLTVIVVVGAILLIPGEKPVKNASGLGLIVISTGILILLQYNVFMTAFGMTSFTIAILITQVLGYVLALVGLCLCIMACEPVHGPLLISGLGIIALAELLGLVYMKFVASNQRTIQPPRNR

T3: rat CD47 (rat, UniProt P97829 19-303)
T3 construct: whole, on cells; also called CD47 on rat red blood cells
T3 sequence (looked up): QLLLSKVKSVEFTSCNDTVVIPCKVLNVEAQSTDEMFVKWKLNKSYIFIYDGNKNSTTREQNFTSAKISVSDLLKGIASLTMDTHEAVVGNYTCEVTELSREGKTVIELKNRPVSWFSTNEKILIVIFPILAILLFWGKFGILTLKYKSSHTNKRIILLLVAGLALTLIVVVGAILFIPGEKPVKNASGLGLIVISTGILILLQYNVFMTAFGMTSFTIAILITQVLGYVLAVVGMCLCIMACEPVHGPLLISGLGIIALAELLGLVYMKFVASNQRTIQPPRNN


Experiments:
Assay in all cases: flow cytometry on RBCs, antibody 10 ng/ml
[1] = biological target: T1, pig CD47
Procedure: (§1) Cross species reactivity of humanized antibodies of the present invention is determined using freshly isolated red blood cells (RBCs), which display CD47 on their surface, from human, mouse, rat, and pig according to the methods disclosed in Kamel et al. (2010) Blood. Transfus. 8(4):260-266.
(§2) RBCs are incubated for 60 minutes on ice with tissue culture supernatants containing the secreted humanized antibodies at a concentration of 10 ng/ml in a solution of phosphate buffered saline, pH 7.2, 2.5 mM EDTA (PBS+E). Cells are then washed with cold PBS+E, and incubated for an additional hour on ice with FITC labeled donkey anti-human antibody (Jackson Immuno Research Labs, West Grove, Pa.; Catalogue #709-096-149) in PBS+E. Cells are then washed with PBS+E, and antibody binding is analyzed using a BD FACSAria Cell Sorter (Becton Dickinson) or a C6 Accuri Flow Cytometer (Becton Dickinson). Antibody binding is quantitated by comparison of mean fluorescence values relative to that of chimeric antibody >VxP037-01LC (SEQ ID NO:7))/>VxP037-01HC (SEQ ID NO:57). The mean fluorescence value for each antibody is divided by the mean fluorescence value for the chimeric antibody.

[2] = biological target: T2, mouse CD47
Procedure: as §1, §2

[3] = biological target: T4, human CD47 (human, UniProt Q08722 19-323)
T4 construct: whole, on cells; also called CD47 on human red blood cells
T4 sequence (Q08722 19-323): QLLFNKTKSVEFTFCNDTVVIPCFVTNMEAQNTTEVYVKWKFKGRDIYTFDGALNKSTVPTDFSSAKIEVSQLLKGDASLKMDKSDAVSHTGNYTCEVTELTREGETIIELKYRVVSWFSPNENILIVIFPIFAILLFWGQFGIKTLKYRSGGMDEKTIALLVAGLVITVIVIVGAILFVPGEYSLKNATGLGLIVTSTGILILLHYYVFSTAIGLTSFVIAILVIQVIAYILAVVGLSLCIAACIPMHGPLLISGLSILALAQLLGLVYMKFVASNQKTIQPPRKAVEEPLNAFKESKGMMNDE
Procedure: as §1, §2

[4] = biological target: T3, rat CD47
Procedure: as §1, §2

Binder | mean fluorescence relative to chimeric antibody [1] | mean fluorescence relative to chimeric antibody [2] | mean fluorescence relative to chimeric antibody [3] | mean fluorescence relative to chimeric antibody [4]
chimeric antibody VxP037-01LC/VxP037-01HC (antibody, human IgG1, kappa, V domains shown, tested as CHO supernatant; also called Chimera; VxP037-01-LC-Pro/VxP037-01-HC-Pro) VH: EVQLQQFGAELVKPGASMKLSCKASGYTFTNYYVFWVKQRPGQGLEWIGDINPVNGDTNFNEKFKNKATLTVDKSSTTTYLQLSSLTSEDSAVYYCTRGGYTMDYWGQGTLVTVSS VL: DVVMTQTPLSLSVSLGDQASISCRSSQSLVHSNGNTYLHWYLQKPGQSPKLLIYKVSYRFSGVPDRFSGSGSGTDFTLKISRVEAEDLGVYFCSQNTHVPRTFGQGTKVEIKR | 1 fold of chimera | 1 fold of chimera | 1 fold of chimera | 1 fold of chimera
pVxK7b-037-hum04-LC/pVxK7b-037-hum04-HC (antibody, human IgG1, V domains shown, Full-length human IgG1/kappa in CHO supernatant; Variable entries end within framework 4 (...FGQG / ...WGQG); also called Clone 4) VH: QVQLQESGPGLVKPSQTLSLTCTVSGYTFTNYYVFWVRQAPGKGLEWVSDINPVNGDTNFNEKFKNRVTISVDTSKNQFSLKLSSVTAADTAVYYCARGGYTMDYWGQG VL: DIQMTQSPSSLSASVGDRVTITCRSSQSLVHSNGNTYLHWYLQKPGQSPQLLIYKVSYRFSGIPARFSGSGSGTEFTLTISSLQSEDFAVYYCSQNTHVPRTFGQG | 0.6 fold of chimera | 0.6 fold of chimera | 0.6 fold of chimera | 1 fold of chimera
pVxK7b-037-hum15-LC/pVxK7b-037-hum15-HC (antibody, human IgG1, V domains shown, Full-length human IgG1/kappa in CHO supernatant; Variable entries end within framework 4 (...FGQG / ...WGQG); also called Clone 15) VH: QVQLQESGPGLVKPSQTLSLTCTVSGYTFTNYYVFWVRQARGQRLEWIGDINPVNGDTNFNEKFKNRLTISKDTSKNQVVLTMTNMDPVDTATYYCARGGYTMDYWGQG VL: AIQLTQSPSSLSASVGDRVTITCRSSQSLVHSNGNTYLHWYQQKPGQAPRLLIYKVSYRFSGVPSRFSGSGSGTEFTLTISSLQPDDFATYYCSQNTHVPRTFGQG | 1.2 fold of chimera | 1.3 fold of chimera | 1 fold of chimera | 2.4 fold of chimera
pVxK7b-037-hum07-LC/pVxK7b-037-hum07-HC (antibody, human IgG1, V domains shown, Full-length human IgG1/kappa in CHO supernatant; Variable entries end within framework 4 (...FGQG / ...WGQG); also called Clone 7) VH: QVQLQESGPGLVKPGATVKISCKVSGYTFTNYYVFWVRQARGQRLEWIGDINPVNGDTNFNEKFKNRVTITADKSTSTAYMELSSLRSEDTAVYYCARGGYTMDYWGQG VL: DIVMTQTPLSLPVTPGEPASISCRSSQSLVHSNGNTYLHWYLQKPGQSPQLLIYKVSYRFSGVPDRFSGSGSGTDFTLKISRVEAEDVGVYYCSQNTHVPRTFGQG | 0.9 fold of chimera | 0.4 fold of chimera | 0.5 fold of chimera | 0.8 fold of chimera
pVxK7b-037-hum06-LC/pVxK7b-037-hum06-HC (antibody, human IgG1, V domains shown, Full-length human IgG1/kappa in CHO supernatant; Variable entries end within framework 4 (...FGQG / ...WGQG); also called Clone 6) VH: QVQLQESGPGLVKPSQTLSLTCTVSGYTFTNYYVFWVRQARGQRLEWIGDINPVNGDTNFNEKFKNRLTISKDTSKNQVVLTMTNMDPVDTATYYCARGGYTMDYWGQG VL: DIQMTQSPSSLSASVGDRVTITCRSSQSLVHSNGNTYLHWYLQKPGQSPQLLIYKVSYRFSGIPARFSGSGSGTEFTLTISSLQSEDFAVYYCSQNTHVPRTFGQG | 1.1 fold of chimera | 1.2 fold of chimera | 0.9 fold of chimera | 2.1 fold of chimera
pVxK7b-037-hum02-LC/pVxK7b-037-hum02-HC (antibody, human IgG1, V domains shown, Full-length human IgG1/kappa in CHO supernatant; Variable entries end within framework 4 (...FGQG / ...WGQG); also called Clone 2) VH: QVQLQESGPGLVKPSQTLSLTCTVSGYTFTNYYVFWVRQARGQRLEWIGDINPVNGDTNFNEKFKNRVTISADKSISTAYLQWSSLKASDTAMYYCARGGYTMDYWGQG VL: DVVMTQSPLSLPVTLGQPASISCRSSQSLVHSNGNTYLHWYQQKPGQAPRLLIYKVSYRFSGVPSRFSGSGSGTEFTLTISSLQPDDFATYYCSQNTHVPRTFGQG | 1.2 fold of chimera | 1.2 fold of chimera | 1 fold of chimera | 2.6 fold of chimera
pVxK7b-037-hum19-LC/pVxK7b-037-hum19-HC (antibody, human IgG1, V domains shown, Full-length human IgG1/kappa in CHO supernatant; Variable entries end within framework 4 (...FGQG / ...WGQG); also called Clone 19) VH: EVQLVQSGAEVKKPGESLRISCKGSGYTFTNYYVFWIRQSPSRGLEWLGDINPVNGDTNFNEKFKNRVTITADKSTSTAYMELSSLRSEDTAVYYCARGGYTMDYWGQG VL: DVVMTQSPLSLPVTLGQPASISCRSSQSLVHSNGNTYLHWYQQKPGKAPKLLIYKVSYRFSGVPDRFSGSGSGTDFTLKISRVEAEDVGVYYCSQNTHVPRTFGQG | 1.3 fold of chimera | 1 fold of chimera | 0.7 fold of chimera | 2.6 fold of chimera
pVxK7b-037-hum05-LC/pVxK7b-037-hum05-HC (antibody, human IgG1, V domains shown, Full-length human IgG1/kappa in CHO supernatant; Variable entries end within framework 4 (...FGQG / ...WGQG); also called Clone 5) VH: QVQLQESGPGLVKPSQTLSLTCTVSGYTFTNYYVFWVRQAPGKGLEWVSDINPVNGDTNFNEKFKNRVTISVDTSKNQFSLKLSSVTAADTAVYYCARGGYTMDYWGQG VL: DIVMTQTPLSLPVTPGEPASISCRSSQSLVHSNGNTYLHWYLQKPGQSPQLLIYKVSYRFSGVPDRFSGSGSGTDFTLKISRVEAEDVGVYYCSQNTHVPRTFGQG | 1.2 fold of chimera | 1 fold of chimera | 1 fold of chimera | 2.2 fold of chimera
pVxK7b-037-hum03-LC/pVxK7b-037-hum03-HC (antibody, human IgG1, V domains shown, Full-length human IgG1/kappa in CHO supernatant; Variable entries end within framework 4 (...FGQG / ...WGQG); also called Clone 3) VH: EVQLVQSGAEVKKPGESLRISCKGSGYTFTNYYVFWVRQARGQRLEWIGDINPVNGDTNFNEKFKNRVTITADKSTSTAYMELSSLRSEDTAVYYCARGGYTMDYWGQG VL: DVVMTQSPLSLPVTLGQPASISCRSSQSLVHSNGNTYLHWYQQKPGKAPKLLIYKVSYRFSGVPDRFSGSGSGTDFTLKISRVEAEDVGVYYCSQNTHVPRTFGQG | 0.9 fold of chimera | 0.9 fold of chimera | 0.7 fold of chimera | 1.7 fold of chimera

More lines, now with the values ahead:

mean fluorescence relative to chimeric antibody [1] | mean fluorescence relative to chimeric antibody [2] | mean fluorescence relative to chimeric antibody [3] | mean fluorescence relative to chimeric antibody [4] | Binder
1.1 fold of chimera | 0.7 fold of chimera | 0.8 fold of chimera | 1.2 fold of chimera | pVxK7b-037-hum24-LC/pVxK7b-037-hum24-HC (antibody, human IgG1, V domains shown, Full-length human IgG1/kappa in CHO supernatant; Variable entries end within framework 4 (...FGQG / ...WGQG); also called Clone 24) VH: QVQLQESGPGLVKPGATVKISCKVSGYTFTNYYVFWVRQARGQRLEWIGDINPVNGDTNFNEKFKNRVTITADKSTSTAYMELSSLRSEDTAVYYCARGGYTMDYWGQG VL: AIQLTQSPSSLSASVGDRVTITCRSSQSLVHSNGNTYLHWYQQKPGQAPRLLIYKVSYRFSGVPSRFSGSGSGTEFTLTISSLQPDDFATYYCSQNTHVPRTFGQG
1.4 fold of chimera | 0.6 fold of chimera | 0.8 fold of chimera | 1.3 fold of chimera | pVxK7b-037-hum12-LC/pVxK7b-037-hum12-HC (antibody, human IgG1, V domains shown, Full-length human IgG1/kappa in CHO supernatant; Variable entries end within framework 4 (...FGQG / ...WGQG); also called Clone 12) VH: QVQLQESGPGLVKPGATVKISCKVSGYTFTNYYVFWVRQARGQRLEWIGDINPVNGDTNFNEKFKNRVTITADKSTSTAYMELSSLRSEDTAVYYCARGGYTMDYWGQG VL: DIVMTQTPLSLPVTPGEPASISCRSSQSLVHSNGNTYLHWYQQKPGKAPKLLIYKVSYRFSGVPDRFSGSGSGTDFTLKISRVEAEDVGVYYCSQNTHVPRTFGQG
1.4 fold of chimera | 1.2 fold of chimera | 1.2 fold of chimera | 2.8 fold of chimera | pVxK7b-037-hum21-LC/pVxK7b-037-hum21-HC (antibody, human IgG1, V domains shown, Full-length human IgG1/kappa in CHO supernatant; Variable entries end within framework 4 (...FGQG / ...WGQG); also called Clone 21) VH: QVQLQESGPGLVKPSQTLSLTCTVSGYTFTNYYVFWVRQARGQRLEWIGDINPVNGDTNFNEKFKNRLTISKDTSKNQVVLTMTNMDPVDTATYYCARGGYTMDYWGQG VL: AIQLTQSPSSLSASVGDRVTITCRSSQSLVHSNGNTYLHWYQQKPGQAPRLLIYKVSYRFSGVPDRFSGSGSGTDFTLKISRVEAEDVGVYYCSQNTHVPRTFGQG
1.4 fold of chimera | 1.3 fold of chimera | 1.2 fold of chimera | 3.1 fold of chimera | pVxK7b-037-hum13-LC/pVxK7b-037-hum13-HC (antibody, human IgG1, V domains shown, Full-length human IgG1/kappa in CHO supernatant; Variable entries end within framework 4 (...FGQG / ...WGQG); also called Clone 13) VH: EVQLVQSGAEVKKPGESLRISCKGSGYTFTNYYVFWIRQSPSRGLEWLGDINPVNGDTNFNEKFKNRVTITADKSTSTAYMELSSLRSEDTAVYYCARGGYTMDYWGQG VL: DIVMTQTPLSLPVTPGEPASISCRSSQSLVHSNGNTYLHWYQQKPGKAPKLLIYKVSYRFSGVPDRFSGSGSGTDFTLKISRVEAEDVGVYYCSQNTHVPRTFGQG
